Test results: patent publication US20260132173A1 (JOON HAENG, published 2026)

Molecular target: T1, human TLR5 expressed from p3xFlag-hTLR5 in HEK293T cells (human, UniProt O60602 21-858)
T1 construct: whole, on cells; In the reporter assays the receptor stood on transfected HEK293T cells; In the Co-IP it stood in the RIPA lysate of such cells and was pulled down with an anti-Flag antibody; also called Toll-like receptor 5; not shown: 3xFlag tag of plasmid p3xFlag-hTLR5
Assay: Co-IP: 3xFlag-hTLR5 HEK293T lysate, anti-Flag pull-down, western blot with anti-Myc-HRP

T1 sequence (O60602 21-858): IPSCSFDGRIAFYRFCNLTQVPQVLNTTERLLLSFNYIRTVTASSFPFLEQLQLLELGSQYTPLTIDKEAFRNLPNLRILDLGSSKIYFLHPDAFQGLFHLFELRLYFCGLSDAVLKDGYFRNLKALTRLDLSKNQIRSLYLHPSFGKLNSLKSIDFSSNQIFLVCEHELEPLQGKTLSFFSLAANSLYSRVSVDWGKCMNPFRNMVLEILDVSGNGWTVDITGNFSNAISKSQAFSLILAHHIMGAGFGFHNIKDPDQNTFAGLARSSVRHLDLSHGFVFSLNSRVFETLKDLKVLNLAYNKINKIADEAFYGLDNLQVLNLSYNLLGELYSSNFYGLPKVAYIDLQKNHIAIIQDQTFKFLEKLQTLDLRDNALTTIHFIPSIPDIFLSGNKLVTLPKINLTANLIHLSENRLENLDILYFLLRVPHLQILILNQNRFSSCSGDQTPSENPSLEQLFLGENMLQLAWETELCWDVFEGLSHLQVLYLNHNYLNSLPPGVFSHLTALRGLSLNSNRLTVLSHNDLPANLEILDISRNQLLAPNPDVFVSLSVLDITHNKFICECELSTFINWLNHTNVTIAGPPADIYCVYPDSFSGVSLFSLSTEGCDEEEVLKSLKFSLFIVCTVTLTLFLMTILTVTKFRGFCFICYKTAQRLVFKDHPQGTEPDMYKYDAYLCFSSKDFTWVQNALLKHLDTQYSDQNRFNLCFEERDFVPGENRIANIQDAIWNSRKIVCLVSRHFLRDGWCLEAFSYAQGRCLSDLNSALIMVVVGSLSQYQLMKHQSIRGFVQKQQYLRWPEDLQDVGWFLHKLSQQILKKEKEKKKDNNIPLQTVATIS

B1: wild-type flagellin (eukFlaB) expressed in Expi293 cells (ligand)
chain: AVNVNTNVAAMTAQRYLNNANSAQQTSMERLSSGFKINSAKDDAAGLQISNRLNVQSRGLDVAVRNANDGISIAQTAEGAMNETTNILQRMRDLSLQSANGSNSKSERVAIQEEVTALNDELNRIAETTSFGGNKLLNGTYGTKAMQIGADNGEAVMLSLKDMRSDNVMMGGVSYQAEEGKDKNWNVAAGDNDLTIALTDSFGNEQEIEINAKAGDDIEELATYINGQTDLVKASVGEGGKLQIFAGNNKVQGEIAFSGSLAGELGLGEGKNVTVDTIDVTTVQGAQESVAIVDAALKYVDSHRAELGAFQNRFNHAISNLDNINENVNASKSRIKDTDFAKETTQLTKTQILSQASSSILAQAKQAPNSALSLLG
modifications: N-glycosylated by expression in Expi293 cells; five putative sites predicted at N83, N101, N139, N273, N330
notes: Secreted through the IgK leader of pSectag2B; also called glycosylated-eFlaB; eukaryotic-expressed wild-type flagellin; not shown: C-terminal Myc tag (and His tag implied by Ni-NTA purification) from vector pSectag2B
- binding result: no binding
